In publication PMC9734377 (Communications Biology, 2022):
Several values for one entry are separate records, joined by “and”; a condition that tells them apart may be missing. Identical values can stand only once.

Assays:
[1] = target: T1, LdG6PD wt dimer (LdG6PD^Dimer) (Leishmania donovani, UniProt A2CIL3); experiment: dead-end inhibition, Lineweaver-Burk; assay type: biochemical; conditions: 0-20 µM GlcN 6-P; competitive against G6P, not against NADP+; pH 7.5, 25 °C; oligomer fraction not told
T1 construct: gene g6pdh
T1 sequence (A2CIL3 1-562): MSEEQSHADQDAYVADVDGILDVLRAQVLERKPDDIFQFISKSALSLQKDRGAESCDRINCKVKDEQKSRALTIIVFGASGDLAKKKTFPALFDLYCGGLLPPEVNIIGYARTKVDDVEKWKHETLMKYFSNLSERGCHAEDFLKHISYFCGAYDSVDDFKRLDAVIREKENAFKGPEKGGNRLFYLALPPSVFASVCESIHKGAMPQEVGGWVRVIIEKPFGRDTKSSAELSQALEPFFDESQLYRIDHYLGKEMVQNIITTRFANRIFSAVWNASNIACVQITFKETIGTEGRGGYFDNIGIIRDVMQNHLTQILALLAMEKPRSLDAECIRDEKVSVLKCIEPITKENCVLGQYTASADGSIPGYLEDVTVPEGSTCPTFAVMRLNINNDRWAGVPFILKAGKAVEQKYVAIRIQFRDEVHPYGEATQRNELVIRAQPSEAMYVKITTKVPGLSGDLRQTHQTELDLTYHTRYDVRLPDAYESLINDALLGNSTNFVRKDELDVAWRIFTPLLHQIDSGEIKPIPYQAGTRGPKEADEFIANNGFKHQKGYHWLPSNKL

[2] = target: T1, LdG6PD wt dimer (LdG6PD^Dimer); experiment: product inhibition, Lineweaver-Burk; assay type: biochemical; conditions: 0-80 µM NADPH; competitive against NADP+ (G6P 800 µM) and against G6P (NADP+ 200 µM); pH 7.5, 25 °C; oligomer fraction not told
[3] = system: NC(=O)c1ccc[n+]([C@@H]2O[C@H](COP(=O)(O)OP(=O)(O)OC[C@H]3O[C@@H](n4cnc5c(N)ncnc54)[C@H](OP(=O)(O)O)[C@@H]3O)[C@@H](O)[C@H]2O)c1; experiment: purified protein; assay type: biochemical, Leishmania donovani; conditions: 800 µM G6P, 50 mM Tris pH 7.5, 3.3 mM MgCl2, 25 °C, crystal ligand given as NADP(H), redox state open
[4] = target: Leishmania donovani glucose 6-phosphate dehydrogenase C138S mutant (Leishmania donovani); experiment: SEC
[5] = target: Leishmania donovani glucose 6-phosphate dehydrogenase truncation mutant lacking the first 59 N-terminal amino acids (Leishmania donovani); experiment: SEC
[6] = target: Leishmania donovani glucose 6-phosphate dehydrogenase wild type (Leishmania donovani); experiment: SEC; HiLoad 16/60 Superdex 200, buffer A (500 mM NaCl, 50 mM Tris, pH 7.8), native conditions; for LdG6PD wt also 12-300 uM enzyme, 5 mM DTT, 2 mM H2O2, substrates (100 uM G6P, NADP+), 0.1-1 M NaCl, pH 4.8-7.8, all without change of the profile; self-association: monomers to dimer and dimers to tetramer
[7] = target: Leishmania major glucose 6-phosphate dehydrogenase wild type (Leishmania major); experiment: as above
[8] = substrate: NC(=O)c1ccc[n+]([C@@H]2O[C@H](COP(=O)(O)OP(=O)(O)OC[C@H]3O[C@@H](n4cnc5c(N)ncnc54)[C@H](OP(=O)(O)O)[C@@H]3O)[C@@H](O)[C@H]2O)c1; experiment: purified protein; conditions: 800 µM G6P
[9] = substrate: NC(=O)c1ccc[n+]([C@@H]2O[C@H](COP(=O)(O)OP(=O)(O)OC[C@H]3O[C@@H](n4cnc5c(N)ncnc54)[C@H](OP(=O)(O)O)[C@@H]3O)[C@@H](O)[C@H]2O)c1; experiment: purified protein; assay type: biochemical, Leishmania donovani; conditions: 800 µM G6P, 50 mM Tris pH 7.5, 3.3 mM MgCl2, 25 °C, tetramer fraction

With `N[C@H]1C(O)O[C@H](COP(=O)(O)O)[C@@H](O)[C@@H]1O` (stereo partly shown) [GlcN 6-P, glucosamine 6-phosphate] the “dead-end inhibition, Lineweaver-Burk” value [1] was “GlcN 6-P shows a competitive inhibition pattern towards G6P”.

`NC(=O)C1=CN([C@@H]2O[C@H](COP(=O)(O)OP(=O)(O)OC[C@H]3O[C@@H](n4cnc5c(N)ncnc54)[C@H](OP(=O)(O)O)[C@@H]3O)[C@@H](O)[C@H]2O)C=CC1` [NADPH] was tested, and the “product inhibition, Lineweaver-Burk” value [2] was “NADPH was found to be a competitive inhibitor with respect to NADP^+ in LdG6PD”.

In the case of LdG6PD^60–562 (Leishmania donovani), the Km [3] is reported as 14.3 ± 2.2 µM, the Vmax [3] is reported as 233 µmol/min/mg and the kcat [3] is reported as 234 ± 18.8 s⁻¹. The kcat/Km [3] was 1.7e+07 ± 2.5e+06 M⁻¹ s⁻¹.

“Leishmania donovani glucose 6-phosphate dehydrogenase C138S mutant (enzyme)” was tested, and the stoichiometry N [4] was 2 and 4.

Molecule “Leishmania donovani glucose 6-phosphate dehydrogenase truncation mutant lacking the first 59 N-terminal amino acids (domain or fragment)” has a stoichiometry N [5] of 2.

For “Leishmania donovani glucose 6-phosphate dehydrogenase wild type (enzyme)”, the stoichiometry N [6] was 4 and 2.

“Leishmania major glucose 6-phosphate dehydrogenase wild type (enzyme)” was tested, and the stoichiometry N [7] was 2 and 4.

B1: LmG6PD wt (Leishmania major) (protein)
chain: MSEEQSHADQDAYVADVDGILDVLRAEVLERKPDDVFQFISQSALSLQKDRGAESCDRINCKVTDEQKSRALTIIVFGASGDLAKKKTFPALFDLYCGGLLPPEVNVIGYARTKVDDAERWKRETLMTYFSNVPERACHAEDFLKHISYFCGSYDKVDDFKRLDAVIREKENAFKGPEKGGNRLFYLALPPSVFASVCESIHKGAMPQEVGGWARVIIEKPFGRDTKSSAELSRALEPFFDESQLYRIDHYLGKEMVQNIITTRFANRIFSAVWNSNNIACVQITFKETIGTEGRGGYFDGIGIIRDVMQNHLTQILALLAMEKPRSLDAECIRDEKVSVLKCIEPITKENCVLGQYTASADGSIPGYQEDVTVPEGSTCPTFAVMRLNINNDRWAGVPFILKAGKAVEQKYVAIRIQFKDEVHPYGEATQRNELVIRAQPSEAMYVKITTKVPGLSGDLRQTHQTELDLTYHTRYDVRLPDAYESLINDALLGNSTNFVRKDELDVAWRIFTPLLHQIDCGEIKPIPYQAGTRGPKEADEFITNNGFKHQKGYQWLPSNKL
Work on B1 yielded a Km ([8]; 50 mM Tris pH 7.5, 3.3 mM MgCl2, 25 °C) of 11.4 ± 1.5 µM.

B2: LdG6PD wt dimer (LdG6PD^Dimer) (Leishmania donovani) (protein)
chain: MSEEQSHADQDAYVADVDGILDVLRAQVLERKPDDIFQFISKSALSLQKDRGAESCDRINCKVKDEQKSRALTIIVFGASGDLAKKKTFPALFDLYCGGLLPPEVNIIGYARTKVDDVEKWKHETLMKYFSNLSERGCHAEDFLKHISYFCGAYDSVDDFKRLDAVIREKENAFKGPEKGGNRLFYLALPPSVFASVCESIHKGAMPQEVGGWVRVIIEKPFGRDTKSSAELSQALEPFFDESQLYRIDHYLGKEMVQNIITTRFANRIFSAVWNASNIACVQITFKETIGTEGRGGYFDNIGIIRDVMQNHLTQILALLAMEKPRSLDAECIRDEKVSVLKCIEPITKENCVLGQYTASADGSIPGYLEDVTVPEGSTCPTFAVMRLNINNDRWAGVPFILKAGKAVEQKYVAIRIQFRDEVHPYGEATQRNELVIRAQPSEAMYVKITTKVPGLSGDLRQTHQTELDLTYHTRYDVRLPDAYESLINDALLGNSTNFVRKDELDVAWRIFTPLLHQIDSGEIKPIPYQAGTRGPKEADEFIANNGFKHQKGYHWLPSNKL
Work on B2 yielded a Km ([8]; 50 mM Tris pH 7.5, 3.3 mM MgCl2, 0.005% Tween, 1 mg/mL BSA, 25 °C, dimer fraction, crystal ligand given as NADP(H), redox state open) of 15.9 ± 1.1 µM.

B3: LdG6PD wt tetramer (LdG6PD^Tetramer) (Leishmania donovani) (protein)
chain: MSEEQSHADQDAYVADVDGILDVLRAQVLERKPDDIFQFISKSALSLQKDRGAESCDRINCKVKDEQKSRALTIIVFGASGDLAKKKTFPALFDLYCGGLLPPEVNIIGYARTKVDDVEKWKHETLMKYFSNLSERGCHAEDFLKHISYFCGAYDSVDDFKRLDAVIREKENAFKGPEKGGNRLFYLALPPSVFASVCESIHKGAMPQEVGGWVRVIIEKPFGRDTKSSAELSQALEPFFDESQLYRIDHYLGKEMVQNIITTRFANRIFSAVWNASNIACVQITFKETIGTEGRGGYFDNIGIIRDVMQNHLTQILALLAMEKPRSLDAECIRDEKVSVLKCIEPITKENCVLGQYTASADGSIPGYLEDVTVPEGSTCPTFAVMRLNINNDRWAGVPFILKAGKAVEQKYVAIRIQFRDEVHPYGEATQRNELVIRAQPSEAMYVKITTKVPGLSGDLRQTHQTELDLTYHTRYDVRLPDAYESLINDALLGNSTNFVRKDELDVAWRIFTPLLHQIDSGEIKPIPYQAGTRGPKEADEFIANNGFKHQKGYHWLPSNKL
B3 showed a Km [9] of 14.2 ± 0.9 µM, a Vmax [9] of 185 µmol/min/mg and a kcat [9] of 204 ± 13.6 s⁻¹. The kcat/Km [9] was 1.49e+07 ± 3e+06 M⁻¹ s⁻¹.
